In patent publication US20140274782A1, “AFFINITY REAGENTS AND METHODS FOR DETECTION, PURIFICATION, AND PROTEOMIC ANALYSIS OF METHYLATED PROTEINS” (The Board of Trustees of the Leland Stanford Junior …, priority 2013, published 2014):

T1: G9a and GLP (Homo sapiens, UniProt Q96KQ7+Q9H9B1)
T1 sequence (Q96KQ7 2-1210 limits assumed): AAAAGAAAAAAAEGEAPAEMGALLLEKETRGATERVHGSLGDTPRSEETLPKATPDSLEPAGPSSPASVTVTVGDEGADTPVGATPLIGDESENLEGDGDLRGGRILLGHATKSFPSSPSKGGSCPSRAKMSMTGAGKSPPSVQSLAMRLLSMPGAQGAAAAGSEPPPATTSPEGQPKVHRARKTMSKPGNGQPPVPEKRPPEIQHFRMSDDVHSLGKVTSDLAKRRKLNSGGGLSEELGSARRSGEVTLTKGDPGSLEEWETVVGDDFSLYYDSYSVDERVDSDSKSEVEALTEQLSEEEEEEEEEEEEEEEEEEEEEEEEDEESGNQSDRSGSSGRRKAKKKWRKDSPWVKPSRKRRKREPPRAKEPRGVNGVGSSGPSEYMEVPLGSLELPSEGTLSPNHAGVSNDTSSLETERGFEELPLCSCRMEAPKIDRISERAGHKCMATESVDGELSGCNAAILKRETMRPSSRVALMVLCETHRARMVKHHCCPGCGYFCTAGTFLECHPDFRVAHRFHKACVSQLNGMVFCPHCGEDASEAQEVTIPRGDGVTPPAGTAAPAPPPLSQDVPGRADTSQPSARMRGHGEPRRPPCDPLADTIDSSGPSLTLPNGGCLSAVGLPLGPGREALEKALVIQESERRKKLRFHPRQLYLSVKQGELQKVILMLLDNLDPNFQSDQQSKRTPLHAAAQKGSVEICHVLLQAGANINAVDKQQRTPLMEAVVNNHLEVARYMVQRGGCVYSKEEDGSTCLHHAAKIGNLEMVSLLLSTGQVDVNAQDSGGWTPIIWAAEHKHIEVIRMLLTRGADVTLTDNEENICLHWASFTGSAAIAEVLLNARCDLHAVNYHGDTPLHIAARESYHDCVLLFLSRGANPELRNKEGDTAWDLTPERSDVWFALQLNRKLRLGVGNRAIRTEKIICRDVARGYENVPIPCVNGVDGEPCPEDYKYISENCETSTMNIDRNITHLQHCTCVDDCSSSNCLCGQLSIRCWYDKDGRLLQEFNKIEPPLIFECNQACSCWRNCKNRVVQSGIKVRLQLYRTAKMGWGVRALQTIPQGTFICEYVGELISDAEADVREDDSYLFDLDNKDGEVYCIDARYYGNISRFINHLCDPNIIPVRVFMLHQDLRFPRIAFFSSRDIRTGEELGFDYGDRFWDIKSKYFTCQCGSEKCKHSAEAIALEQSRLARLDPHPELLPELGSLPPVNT
T1 sequence (Q9H9B1 2-1298 limits assumed): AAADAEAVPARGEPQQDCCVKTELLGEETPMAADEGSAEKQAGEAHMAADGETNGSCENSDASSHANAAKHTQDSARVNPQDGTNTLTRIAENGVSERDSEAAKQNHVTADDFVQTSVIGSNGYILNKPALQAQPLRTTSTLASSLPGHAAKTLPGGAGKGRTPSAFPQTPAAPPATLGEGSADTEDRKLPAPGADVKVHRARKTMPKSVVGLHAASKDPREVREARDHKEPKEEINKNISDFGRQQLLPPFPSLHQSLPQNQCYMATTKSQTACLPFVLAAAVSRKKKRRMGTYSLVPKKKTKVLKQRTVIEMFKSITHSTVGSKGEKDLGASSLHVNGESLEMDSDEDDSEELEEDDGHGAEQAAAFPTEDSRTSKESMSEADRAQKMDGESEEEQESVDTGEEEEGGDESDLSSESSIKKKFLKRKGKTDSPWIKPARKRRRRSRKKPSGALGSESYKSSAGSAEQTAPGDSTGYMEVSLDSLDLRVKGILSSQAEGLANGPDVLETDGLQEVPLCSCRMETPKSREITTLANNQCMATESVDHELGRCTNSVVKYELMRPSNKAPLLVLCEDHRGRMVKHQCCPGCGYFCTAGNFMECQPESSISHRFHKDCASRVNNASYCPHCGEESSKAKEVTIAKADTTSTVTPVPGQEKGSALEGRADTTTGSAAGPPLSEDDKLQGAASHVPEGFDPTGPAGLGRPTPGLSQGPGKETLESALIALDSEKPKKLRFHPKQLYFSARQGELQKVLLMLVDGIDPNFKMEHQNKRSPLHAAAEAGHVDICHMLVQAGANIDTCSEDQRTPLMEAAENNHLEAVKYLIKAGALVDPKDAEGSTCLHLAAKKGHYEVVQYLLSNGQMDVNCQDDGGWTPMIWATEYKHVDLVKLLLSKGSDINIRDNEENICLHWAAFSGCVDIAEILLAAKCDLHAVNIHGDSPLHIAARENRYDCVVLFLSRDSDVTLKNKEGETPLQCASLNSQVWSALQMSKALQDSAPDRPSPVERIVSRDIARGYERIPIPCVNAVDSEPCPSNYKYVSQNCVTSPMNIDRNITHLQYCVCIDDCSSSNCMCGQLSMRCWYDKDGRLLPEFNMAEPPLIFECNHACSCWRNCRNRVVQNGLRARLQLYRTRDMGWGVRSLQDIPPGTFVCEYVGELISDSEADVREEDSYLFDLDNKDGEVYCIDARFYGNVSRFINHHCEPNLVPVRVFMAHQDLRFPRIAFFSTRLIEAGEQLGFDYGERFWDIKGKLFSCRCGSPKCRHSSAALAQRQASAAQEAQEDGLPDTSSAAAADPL


Key:
G9a and GLP = molecular target: T1, G9a and GLP; experiment: Triple SILAC pull-down after UNC0638 treatment of 293T cells, DMSO/UNC0638 ratio of protein captured by 3×MBT; format: cell-based; set-up: cells were treated for 24 hours with UNC0638 at 2.5 μM or DMSO vehicle control; endogenous in cells; host or cells: HEK 293T; conditions: for Relative to UNC0638 UNC Heavy / Relative to UNC0638 UNC Light: SILAC ratio DMSO/UNC0638 of protein pulled down with 3xMBT; for Relative to UNC0638 UNC Heavy: UNC0638 in heavy SILAC media; for Relative to UNC0638 UNC Light: UNC0638 in light SILAC media; for Relative to UNC0638 Average: average of UNC Light and UNC Heavy experiments;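 for all read-outs here: mass spectrometry (Q-Exactive) SILAC quantitation, DMSO/UNC0638 ratio computed after subtracting 3×MBTD355N mutant pull-down background, only proteins with at least twofold 3×MBT over mutant signal considered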
3×MBT domain of L3MBTL1 = experiment: Triple SILAC pull-down, 3xMBT/3xMBTD355N ratio (cytoplasmic, nuclear and chromatin fractions of 293T cells); format: binding, human; conditions: SILAC ratio, pull-down 3xMBT vs 3xMBTD355N; for 3xMBT/D355N UNC Heavy: experiment with UNC0638 in heavy SILAC media; for 3xMBT/D355N UNC Light: experiment with UNC0638 in light SILAC media;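 for all read-outs here: proteins quantified with MaxQuant, requiring at least two unique peptides and quantification in both label directions, normalized to the mean of proteins from a digested loading control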

| Relative to UNC0638 UNC Heavy (G9a and GLP) [log base 2] | Relative to UNC0638 UNC Light (G9a and GLP) [log base 2] | Relative to UNC0638 Average (G9a and GLP) [log base 2] | Molecule | 3xMBT/D355N UNC Heavy (3×MBT domain of L3MBTL1) [log base 2] | 3xMBT/D355N UNC Light (3×MBT domain of L3MBTL1) [log base 2] |
| --- | --- | --- | --- | --- | --- |
| 0.05 | 0.23 | 0.14 | MTHFD1 (protein, UniProt P11586 1-935, looked up) C-1-tetrahydrofolate …: MAPAEILNGKEISAQIRARLKNQVTQLKEQVPGFTPRLAILQVGNRDDSNLYINVKLKAAEEIGIKATHIKLPRTTTESEVMKYITSLNEDSTVHGFLVQLPLDSENSINTEEVINAIAPEKDVDGLTSINAGKLARGDLNDCFIPCTPKGCLELIKETGVPIAGRHAVVVGRSKIVGAPMHDLLLWNNATVTTCHSKTAHLDEEVNKGDILVVATGQPEMVKGEWIKPGAIVIDCGINYVPDDKKPNGRKVVGDVAYDEAKERASFITPVPGGVGPMTVAMLMQSTVESAKRFLEKFKPGKWMIQYNNLNLKTPVPSDIDISRSCKPKPIGKLAREIGLLSEEVELYGETKAKVLLSALERLKHRPDGKYVVVTGITPTPLGEGKSTTTIGLVQALGAHLYQNVFACVRQPSQGPTFGIKGGAAGGGYSQVIPMEEFNLHLTGDIHAITAANNLVAAAIDARIFHELTQTDKALFNRLVPSVNGVRRFSDIQIRRLKRLGIEKTDPTTLTDEEINRFARLDIDPETITWQRVLDTNDRFLRKITIGQAPTEKGHTRTAQFDISVASEIMAVLALTTSLEDMRERLGKMVVASSKKGEPVSAEDLGVSGALTVLMKDAIKPNLMQTLEGTPVFVHAGPFANIAHGNSSIIADRIALKLVGPEGFVVTEAGFGADIGMEKFFNIKCRYSGLCPHVVVLVATVRALKMHGGGPTVTAGLPLPKAYIQENLELVEKGFSNLKKQIENARMFGIPVVVAVNAFKTDTESELDLISRLSREHGAFDAVKCTHWAEGGKGALALAQAVQRAAQAPSSFQLLYDLKLPVEDKIRIIAQKIYGADDIELLPEAQHKAEVYTKQGFGNLPICMAKTHLSLSHNPEQKGVPTGFILPIRDIRASVGAGFLYPLVGTMSTMPGLPTRPCFYDIDLDPETEQVNGLF | 1.99 | 2.35 |
| 0.36 | −0.03 | 0.16 | DRG1 (protein, UniProt Q9Y295 2-367, looked up) Developmentally-regulated …: SSTLAKIAEIEAEMARTQKNKATAHHLGLLKARLAKLRRELITPKGGGGGGPGEGFDVAKTGDARIGFVGFPSVGKSTLLSNLAGVYSEVAAYEFTTLTTVPGVIRYKGAKIQLLDLPGIIEGAKDGKGRGRQVIAVARTCNLILIVLDVLKPLGHKKIIENELEGFGIRLNSKPPNIGFKKKDKGGINLTATCPQSELDAETVKSILAEYKIHNADVTLRSDATADDLIDVVEGNRVYIPCIYVLNKIDQISIEELDIIYKVPHCVPISAHHRWNFDDLLEKIWDYLKLVRIYTKPKGQLPDYTSPVVLPYSRTTVEDFCMKIHKNLIKEFKYALVWGLSVKHNPQKVGKDHTLEDEDVIQIVKK | 3.49 | 3.66 |
| 0.16 | 0.17 | 0.16 | PABPC4 (protein, UniProt Q13310 1-644, looked up) Polyadenylate-binding protein …: MNAAASSYPMASLYVGDLHSDVTEAMLYEKFSPAGPVLSIRVCRDMITRRSLGYAYVNFQQPADAERALDTMNFDVIKGKPIRIMWSQRDPSLRKSGVGNVFIKNLDKSIDNKALYDTFSAFGNILSCKVVCDENGSKGYAFVHFETQEAADKAIEKMNGMLLNDRKVFVGRFKSRKEREAELGAKAKEFTNVYIKNFGEEVDDESLKELFSQFGKTLSVKVMRDPNGKSKGFGFVSYEKHEDANKAVEEMNGKEISGKIIFVGRAQKKVERQAELKRKFEQLKQERISRYQGVNLYIKNLDDTIDDEKLRKEFSPFGSITSAKVMLEDGRSKGFGFVCFSSPEEATKAVTEMNGRIVGSKPLYVALAQRKEERKAHLTNQYMQRVAGMRALPANAILNQFQPAAGGYFVPAVPQAQGRPPYYTPNQLAQMRPNPRWQQGGRPQGFQGMPSAIRQSGPRPTLRHLAPTGSECPDRLAMDFGGAGAAQQGLTDSCQSGGVPTAVQNLAPRAAVAAAAPRAVAPYKYASSVRSPHPAIQPLQAPQPAVHVQGQEPLTASMLAAAPPQEQKQMLGERLFPLIQTMHSNLAGKITGMLLEIDNSELLHMLESPESLRSKVDEAVAVLQAHHAKKEAAQKVGAVAAATS | 2.94 | 3.59 |
